Molecular target: Claudin 18 splice variant 2 (CLDN18.2) (human)
Experiment: cell-based or functional assay

IMAB362, sequence (VH): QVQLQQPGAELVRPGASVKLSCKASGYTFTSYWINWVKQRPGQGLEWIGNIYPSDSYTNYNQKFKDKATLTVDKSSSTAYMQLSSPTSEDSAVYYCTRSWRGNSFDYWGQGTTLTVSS
IMAB362, sequence (VL): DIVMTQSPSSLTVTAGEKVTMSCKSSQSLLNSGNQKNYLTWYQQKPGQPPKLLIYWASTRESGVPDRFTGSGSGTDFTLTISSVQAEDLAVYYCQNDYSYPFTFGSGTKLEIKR

CDC lysis of CLDN18.2-transfected CHO-K1 cells, 0.5 µg/ml IMAB362 in pooled sera from healthy controls, 80 min: 64.5% | CDC lysis of CLDN18.2-transfected CHO-K1 cells, 0.5 µg/ml fresh IMAB362 in patient pre-infusion serum (20% v/v), 80 min: 71% | CDC lysis of CLDN18.2-transfected CHO-K1 cells, 0.5 µg/ml fresh IMAB362 in pre-infusion serum of patient 0204, 80 min: 93.9% | EC50 of CDC on CLDN18.2 positive CHO-K1 target cells: 0.5 µg/mL | maximal specific lysis of NUGC-4 target cells, ADCC with patient PBMCs (E:T 20:1, 24 h), at ~30 µg/ml IMAB362: 27 to 77%
Substance: IMAB362 (antibody)
EC80-100 of total cytotoxicity (ADCC plus serum components) on NUGC-4 cells, healthy donor PBMCs, E:T 40:1, 25% serum: 200 µg/mL | specific killing of NUGC-4 cells by IMAB362 present in patient serum 28-32 days after administration (healthy donor PBMCs, E:T 40:1): > 48%

Source: patent US20260069687A1
